Results taken from the nanobody polyreactivity screen of Harvey et al. (2022).

Assay: yeast display, Sf9 membrane polyspecificity reagent, FACS + sequencing; frameworks hold sequencing errors
Procedure, shortened: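 Nanobodies from a synthetic yeast display library (Saccharomyces cerevisiae BJ5465), induced 36–48 hours with galactose, were stained 1 hour at 4 °C with 10% biotinylated, detergent-solubilized Sf9 membrane reagent, enriched on streptavidin microbeads, then FACS-sorted. Anti-HA (expression) and streptavidin (reagent binding) fluorescence set low and high (top ~1%) gates. Polyreactivity labels come from the gate of origin. Genes were colony-PCR amplified, MiSeq 2 × 250 sequenced and filtered by CDR length.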

Sequence | polyreactivity (PSR sort gate)
QVQLVESGGGLVQAGGSLRLSCAASGSTFRRYAMGWYRPAPGKERELVAAISTRGGSTYYADSVKGRFTISRDNAKNTVYLQMNSLKPEDTAVYYCAADEPKYTSSSSRRYGYWGQGTQVTVSS | high polyreactivity
QVQLVESVGGLVQAGGSLRISCAASGRIFTHNVMGWYRQAPGKERELVAAISASGGSTYYADSVKGRFTISRDNAKNTVYLQMNSLKPEDTAVYYCNAGDYRTFYRRFDYWGQGTQVTVSS | low polyreactivity
QVQLVESGGGLVQAGCSLRLSCAASGSIFTINAMGWYREAPGKERELVAAISFGGGSTYYADSVKGRFTISRDNAKITGYLQMNSLKREDTAVYYCAAEDWWGYDYWGQGNQVTVSS | high polyreactivity
QVQLVESGGGLDQAGGSLRLTCAASRFNFNGYAMGSYSQAPRKERELVAGITSGGRTNYADSVKGRFTISRDNAKNTVYLQMNSLKPEDTAVYYCNRYKVSGYDYWGQGTQVTVSS | high polyreactivity
QVQLVESGGGLVQAGGSLRLSCAASGSTFIKNAMGWYRQAPGKERELVAAINNSGSRTYYADSVKGRFTISRDNAKNTVYLQMNSLKPEDTAVYYCAAGRTYGMGYWGQGTQVTVSS | high polyreactivity
QVQLVESGGGLVQAGGSLRLSCAASGSIFRKYSMGWYRQAPGKERELVAGITGRGGRTYYADSVKGRFTISRDNAKNTVYLQMNSLKPDDTAVYYCAATVSPSYDYWGQGTQVTVSS | high polyreactivity
QVQLVESGGCLVQAGGSLRLCCAASGSTFDSNAMGSYRQAPGIERELVAAISSDGSTTYADSVKGRFTISRDNAMNTVYLQMNSLKPEDTAVYYCEYYYWGQGTQVSVSS | low polyreactivity
QVQLVESGVGLVQGGGSLRLTCAASGYTFPRYTKGWYRQPPGKERELVASINWSGGSTYYADSVKGRFTISRDNAKNNVYLQMNCLKPDDTAVYFCNKAYVSRYDYWGQGSQVTVSS | high polyreactivity
QVQLVESGGGLVQAGGSLRLSCAASGLTDVRYAMGWYRQAPGKEREFVAAINWRGTRTYADSVKGRYTISRDNAKNTVYLQMNSLKPEDTAVYYCAARTLYFSKYVYWGQGTQVTVSS | high polyreactivity
QVQLVESGGGLVQAGGSLRLSCAASGIIFDRYAMGWYRQAPGKEREFVAAISRRGGSTYYADSVKGRFTISRDNAKNTVYLQMNSLKPEDTAVYYCAKEIRYYSSVSESDYWGQGTQVTVSS | high polyreactivity
QVLLVESGGGLVQAGGSLRLSCAASGSTFPLYAMGWYRQAPGTERELVAAITSGGGNTYYADSVMGRFTISRDKAQNTVYLQMNSLKPEDTAVYYCAAVGGYKTYYSYEYDYWGQGTQVTVSS | low polyreactivity
QLQLVESGGGLVQAGGSLRLSCAASGSTFWSNTMGWYRQAPGKERELVATITDSGGITYYADSVKGRFTISRDNAKNTVYLQMNSLKPEDTAVYYCNVRKTWYGYSVTGRYDYWGQGTQVTVSS | low polyreactivity
QVQLVESGGGLVQAGGSLRLICAASGSTFIPNAMGWYRQSPGKERELVAAISTGGSTNYADSVKGRFTISRDNAKNTVYLQINCLKPEDTAVYYCNARRGYYNPGRRFYYWGQGTQVTVSS | low polyreactivity
QVLLVESGGGLVQAGGSLRLSCAASGSTFLRYTMGWYRQAPGKERELVAAINYGGGSTYYADSVKGRFTISRDNAKNTVYLQMNSLKPEDTAVYYCAAGFFRSAHGGKFYYWGQGTQVTVSS | high polyreactivity
QVQLVESGGGLVQAGGSLRLSCAASGSIFESYAMGWYRQAPGKERELVAAITKRGGSTYYADSVKGRFTISRDNAKNTVYLQMNSLKPEDTAVYYCNARWPGIGPIYDYWGQGTQVTVSS | low polyreactivity
QVQLVESGGGLVQAGGSLRLSCAASGRTFTSYAMGWYRQAPGKERELVAAISQGGGRTYYADSVKGRFTISRDNAKNTVYLQMNSLKPEDTAVYYCNARSLYPWRWKKEYGHWGQGTQVTVSS | high polyreactivity

Sequence | polyreactivity (PSR sort gate)
QVQLVESGGGLVQAGCSLRLTCAASGSIFPYYAMGWYRQAPGKERELVAAISYSGGRTRYADSVKGRFTISRDNAKNTVYLQMNSLKPEHTAVYYCAVVDRHQPYGRQLDYWGQGTQVTVSS | low polyreactivity
QVQLVESGGGLVQAGGTLRISCAASGRTFGIYAMGWSRQAPGKERELVAAITGRGGSTHYADSVKGRFTISRDNAKNTVYLQMNSLQPEDTAVYYCAADYRYNRGITSNKDYEYWGQGTQVSVSS | low polyreactivity
QVQLVESGGGLVQAGGSLRLSCAASGSIFYWYAMGWYRQAPGKERELVAVISSGGSTYYADSVKGRFTISRDNAKNTVYLQMNSLKPEDTAVYYCNAGPLRSGRYTYYYWGQGTQVTVSS | low polyreactivity
QVQLVESGGGLVQAGGSLRLSCAASGIIFQAYAMGWYRQAPGKERELVAAISYSGGSTYYADSVKGRFTISRDNAKNTVYLQMNCLKPEDTAVYYCAATFYGYFDSVFSWGYYYWGQGTQVTVSS | low polyreactivity
QVQLVESGGGLVKAGGRLRLSCAASGSIFKKYAMGWYRQAPGKERELVAAITSGRSTYYADSVKGRFTISRDNAKKTVYLQMNSLKPEDTAVYYCANYRKGSLGSWGQGTQGTVSS | high polyreactivity
QDQLVESGGGLVQAGGSLSLCCAASGFTFKLYAMGWYRQAAGKVREVVAAISSSGGRTYYADSVKGRFTISRDNAKNTVYLQMNSLKPEDTAVYYCNAVRTVNDYHYDYSGQGTQVTVSS | high polyreactivity
QVQLVESGGGLVQAGGSLRLSCAASGSIFNGYALGWYRQAPGKERELVAAISSGGCTNYADSVKGSFTISRDNAKNTVYLQMNSLKPEDTAVYYCDKDYGYYWPWHYIASYEYDYWGQGTQVTVSS | low polyreactivity
QVQLVESGGGLVQAGGSLRLSCAASGSIFALYTMGWYRQAPGKEREMVAAISRRGGNKYYADSVKGRFTISRDNAKNTVYLQMNRLKPEDTAVYYCNADRLRSTHDYWGQGTQVSVSS | high polyreactivity
QVQLVESGGGLVQAGGSLRLSCAASGFIFNRYAMGWYRQAPGKERELVAAISYRGGGTYYADSVKGRFTISRDNAKNTVYLQMNSLKPEDTAVYYCAADSSYYYPMDYWGQGTQVTVSS | high polyreactivity
QVQLVESGGGLVQAGGSLRLSCAASGITFRRSAMGWYRQAPGKEREVVAAISIRGGRTYYADAVKGRFTISRDNAKNTVYLQMNSLIPEDTAVYYCAADGVYALDVESDYWGLGTQVTVSS | high polyreactivity
QVQLVESGGGLVQAGGSLRLSCAASGFTFYRYAMGWYRPATGKERELVATISASGGSTYYADSVKGRFTISRDNAKNTVYLQMNSLKPEDTAVYYCAVRYKSWYGFNYWGQGTQVTVSS | high polyreactivity
QVQLVESGGGLVQAGGSLRLSCAASGSIFDGYAMGWYRQAPGKERELVAAISASGVRTYYADSVKGRFTISRDNAKNTVYLQMNSLKPEDTAVYYCAAAVYYGQSVWYYYWGQGTQVTVSS | high polyreactivity
QVQLVESGGGLVQAGGSLRLSCAASGSTLDIYAMGWYRQAPGKERELVAAITSGGSTNYADSVKGRFTISRDNAKNTVYLQMNSLKPEDTAVYYCNARYFRGYDYWGQGTQVTVSS | high polyreactivity
QVQLVESGGGLVQAGGSLRLSCAASGLTFSHYAMGWYRQAPGKERELVAGISSRGGNTYYADSVKGRFTISRDNAKNTVYLQMNSLKPEDTAVYYCATPRSRTDGYDYWGQGTQVTVSS | high polyreactivity
QVQLVESGGGLVQAGGSLRLSCAASGSTFGRYAMVWYRQAPGKEREFVAGITGRGGSTYYADSVKGRFTISRDNAKNTVYLQMKSLKPEVNAVYYSAAGYRVGYRYDYWGQCTQVTVSS | high polyreactivity
QVQLVESGGGLVQAGGSLRLSCAASGFTFKWYAMGWYRQAPGKERELVATITIGGRTNYADSVKGRFTISRDNAKNTVYLQMNSLKPEDTAVYYCAAESGKIVDFVWVLAYPRLDYWGQGTQVTVSS | low polyreactivity
